± gives the uncertainty stated by the source.
Test: self-splicing fitness, log relative to wild type (ln ratio); higher = more splicing; Tetrahymena group I intron in knt gene, E. coli kanamycin selection, DiMSum; sequences stand for … in CUCUCU…GGAGGGAAAAGUUAUCAGGCAUGCACCUGGUAGCUAGUCUUUAAACCAAUAGAUUGCAUCGGUUUAAAAGGCAAGACCGUCAAAUUGCGGGAAAGGGGUCAACAGCCGUUCAGUACCAAGUCUCAGGGGAAACUUUGAGAUGGCCUUGCAAAGGGUAUGGUAAUAAGCUGACGGACAUGGUCCUAACCACGCAGCCAAGUCCUAAGUCAACAGAUCUUCUGUUGAUAUGGAUGCAGUUCACAGACUAAAUGUCGGUCGGGGAAGAUGUAUUCUUCUCAUAAGAUAUAGUCGGACCUCUCCUUAAUGGGAGCUAGCGGAUGAAGUGAUGCAACACUGGAGCCGCUGGGAACUAAUUUGUAUGCGAAAGUAUAUUGAUUAGUUUUGGAGUACUCGUGGUCG
In short: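 Six replicate transformations of E. coli BL21(DE3) with a pET-22b(+) library were grown overnight at 37°C or 30°C. The library randomised all eight P1ex-region intron nucleotides, the intron lying in the knt kanamycin-resistance gene, and plates were LB agar with or without 25 μg/mL kanamycin plus 100 μg/mL carbenicillin, 50 μM IPTG and 0.2% rhamnose. Pooled colonies were amplicon-sequenced on an Illumina HiSeq 2500, and fitness is the DiMSum error-weighted combination of wild-type-normalised replicate fold changes, kanamycin versus none.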

Row | Sequence | self-splicing fitness (ln) (30 °C) | self-splicing fitness (ln) (37 °C)
1 | CACUAGCAAUAUUACGUGUC | -3.71 ± 0.14 | -2.93 ± 0.15
2 | GCCCAGCAAUAUUACGAUAA | -2.26 ± 0.11 | -1.57 ± 0.13
3 | GGGCAGCAAUAUUACGCUCG | -0.812 ± 0.11 | -1.24 ± 0.14
4 | UACGAGCAAUAUUACGCACU | -2.42 ± 0.29 | -2.13 ± 0.28
5 | ACGUAGCAAUAUUACGUAGC | -3.34 ± 0.27 | -2.62 ± 0.35
6 | AGCCAGCAAUAUUACGGAAG | -1.57 ± 0.1 | 0.171 ± 0.12
7 | GAAAAGCAAUAUUACGAAGU | -2.98 ± 0.18 | -0.976 ± 0.2
8 | GAAAAGCAAUAUUACGUGGA | -2.96 ± 0.12 | -1.89 ± 0.12
9 | UGUUAGCAAUAUUACGAUCA | -0.0398 ± 0.15 | 0.805 ± 0.15
10 | UCUAAGCAAUAUUACGCUCU | -3.32 ± 0.47 | -2.58 ± 0.41
11 | AGAGAGCAAUAUUACGAUAU | -2.21 ± 0.47 | -2.2 ± 0.43
12 | ACCGAGCAAUAUUACGGCGU | -0.733 ± 0.082 | -0.172 ± 0.11
13 | CUUAAGCAAUAUUACGUGCC | -4.6 ± 0.38 | -1.53 ± 0.18
14 | AAUUAGCAAUAUUACGGUUG | -2.53 ± 0.13 | -0.897 ± 0.13
15 | CUUAAGCAAUAUUACGACAU | -3.434 ± 0.023 | -2.11 ± 0.036
16 | UGUUAGCAAUAUUACGCGGA | -0.526 ± 0.082 | -0.401 ± 0.087
17 | GGACAGCAAUAUUACGCCCG | -0.653 ± 0.24 | -0.591 ± 0.28
18 | AUCGAGCAAUAUUACGGACU | -0.916 ± 0.16 | -0.737 ± 0.19
19 | CGGCAGCAAUAUUACGUUUU | -3.75 ± 0.17 | -2.09 ± 0.14
20 | ACCAAGCAAUAUUACGGAAG | -3.74 ± 0.17 | -3.14 ± 0.19
21 | CGUGAGCAAUAUUACGAGUG | -1.24 ± 0.12 | 0.147 ± 0.16
22 | GAGUAGCAAUAUUACGAGCC | -1.67 ± 0.2 | -1.26 ± 0.19
23 | CGGGAGCAAUAUUACGAGGG | -2.28 ± 0.29 | –
24 | GAAGAGCAAUAUUACGCCAU | – | -1.61 ± 0.37
25 | UUCGAGCAAUAUUACGUUAG | -4.22 ± 0.42 | -3.37 ± 0.3

Row | Sequence | self-splicing fitness (ln) (30 °C) | self-splicing fitness (ln) (37 °C)
26 | CCUUAGCAAUAUUACGGGAG | -3.19 ± 0.23 | -3.67 ± 0.39
27 | UGAAAGCAAUAUUACGUGCU | -2.79 ± 0.12 | -1.32 ± 0.12
28 | GGCUAGCAAUAUUACGACGC | -0.655 ± 0.41 | 0.803 ± 0.43
29 | AUGUAGCAAUAUUACGACAU | -1.39 ± 0.014 | -0.557 ± 0.033
30 | AAGUAGCAAUAUUACGUCGA | -1.34 ± 0.1 | -1.07 ± 0.11
31 | UAGGAGCAAUAUUACGGAAG | -2.94 ± 0.18 | -1.51 ± 0.26
32 | GCAGAGCAAUAUUACGCAUU | -3.11 ± 0.16 | -2.3 ± 0.2
33 | UAAAAGCAAUAUUACGCCCG | -0.0582 ± 0.21 | 0.323 ± 0.23
34 | GUUAAGCAAUAUUACGCUGA | -2.98 ± 0.22 | -1.4 ± 0.2
35 | UUAAAGCAAUAUUACGUCUC | -2.76 ± 0.13 | -1.4 ± 0.13
36 | AUAGAGCAAUAUUACGUGAA | – | -1.07 ± 0.25
37 | AAGCAGCAAUAUUACGGGGG | -3.26 ± 0.22 | -1.92 ± 0.16
38 | AGUGAGCAAUAUUACGGGAC | -4.1 ± 0.47 | –
39 | ACACAGCAAUAUUACGGGUA | -2.3 ± 0.098 | -1.26 ± 0.074
40 | AGUGAGCAAUAUUACGAAUC | – | -1.49 ± 0.38
41 | CGUCAGCAAUAUUACGACGG | -0.836 ± 0.081 | -0.516 ± 0.12
42 | UGACAGCAAUAUUACGAUCG | 0.0362 ± 0.077 | 0.761 ± 0.1
43 | CUCGAGCAAUAUUACGAGAG | -1.71 ± 0.28 | –
44 | UACAAGCAAUAUUACGGCUG | -0.22 ± 0.1 | 0.307 ± 0.16
45 | CCGUAGCAAUAUUACGUCAG | -1.26 ± 0.077 | -1.55 ± 0.089
46 | UUUCAGCAAUAUUACGACGC | -2.68 ± 0.24 | -1.67 ± 0.19
47 | GGGGAGCAAUAUUACGCGGU | -1.99 ± 0.27 | –
48 | AUUGAGCAAUAUUACGUUGG | -3.62 ± 0.36 | -0.682 ± 0.17
49 | CGAUAGCAAUAUUACGCGAU | -3.09 ± 0.18 | -2.6 ± 0.29
50 | GAGGAGCAAUAUUACGGGAA | -2.81 ± 0.26 | -1.84 ± 0.46

Row | Sequence | self-splicing fitness (ln) (30 °C) | self-splicing fitness (ln) (37 °C)
51 | AUUUAGCAAUAUUACGUCUC | -3.59 ± 0.37 | -2.18 ± 0.3
52 | CCUUAGCAAUAUUACGUAGC | -2.7 ± 0.18 | -1.8 ± 0.21
53 | ACCCAGCAAUAUUACGGCCC | -0.0475 ± 0.11 | -0.539 ± 0.15
54 | GGCCAGCAAUAUUACGGCGU | -1.59 ± 0.098 | -0.69 ± 0.12
55 | GUCUAGCAAUAUUACGAGCA | -1.29 ± 0.24 | -0.906 ± 0.24
56 | UAGAAGCAAUAUUACGCGGG | -2.4 ± 0.14 | -1.1 ± 0.13
57 | ACCUAGCAAUAUUACGUAAG | -1.53 ± 0.065 | -0.172 ± 0.081
58 | GCGAAGCAAUAUUACGUGAU | -2.53 ± 0.092 | -0.973 ± 0.098
59 | CUGCAGCAAUAUUACGCGGC | – | -2.63 ± 0.34
60 | CAUUAGCAAUAUUACGGGGC | -3.44 ± 0.23 | -1.95 ± 0.23
61 | UAACAGCAAUAUUACGUAGA | -2.81 ± 0.071 | -1.37 ± 0.086
62 | GCUCAGCAAUAUUACGCGAA | -0.998 ± 0.11 | -0.98 ± 0.12
63 | AGUGAGCAAUAUUACGAUUU | -2.6 ± 0.24 | -1.12 ± 0.22
64 | CCUAAGCAAUAUUACGGUCC | – | -2.28 ± 0.45
65 | UUGGAGCAAUAUUACGGGGC | -3.04 ± 0.28 | -3.26 ± 0.47
66 | CCGGAGCAAUAUUACGCUCA | -3.12 ± 0.3 | -2.71 ± 0.41
67 | UAGGAGCAAUAUUACGUAAU | -3.15 ± 0.34 | –
68 | UAACAGCAAUAUUACGUGUC | -4.05 ± 0.14 | -2.35 ± 0.13
69 | CCACAGCAAUAUUACGCCUA | -2.47 ± 0.28 | -2.79 ± 0.34
70 | GGUCAGCAAUAUUACGUGCU | -1.5 ± 0.052 | -0.199 ± 0.067
71 | GCUGAGCAAUAUUACGUUCC | -1.48 ± 0.2 | -1.84 ± 0.35
72 | GUUAAGCAAUAUUACGUUGU | -3.68 ± 0.16 | -2.28 ± 0.2
73 | CGGCAGCAAUAUUACGCAUC | -3.25 ± 0.26 | -2.39 ± 0.41
74 | GCAAAGCAAUAUUACGGGAG | -2.71 ± 0.11 | -2.08 ± 0.13
75 | CGUAAGCAAUAUUACGAAUG | -0.363 ± 0.081 | -0.692 ± 0.088

Row | Sequence | self-splicing fitness (ln) (30 °C) | self-splicing fitness (ln) (37 °C)
76 | AUCCAGCAAUAUUACGAUGC | -2.01 ± 0.15 | -0.963 ± 0.17
77 | UUAUAGCAAUAUUACGGCCA | -1.18 ± 0.31 | -0.579 ± 0.33
78 | UUACAGCAAUAUUACGUUUG | -1.54 ± 0.074 | -1.14 ± 0.094
79 | UUCUAGCAAUAUUACGAACG | -3.61 ± 0.36 | -1.15 ± 0.27
80 | CCACAGCAAUAUUACGAAGA | -1.5 ± 0.15 | -2.55 ± 0.24
81 | CGUUAGCAAUAUUACGUCGG | -0.297 ± 0.1 | 0.0154 ± 0.14
82 | AAACAGCAAUAUUACGCGAU | -2.98 ± 0.16 | -2.42 ± 0.17
83 | UUAGAGCAAUAUUACGGUUG | -1.98 ± 0.15 | -1.16 ± 0.15
84 | ACCCAGCAAUAUUACGGGAA | -0.235 ± 0.044 | -0.102 ± 0.055
85 | CGUGAGCAAUAUUACGUUGC | -2.69 ± 0.21 | -2.51 ± 0.32
86 | CUCCAGCAAUAUUACGCACA | -1.38 ± 0.15 | -2.29 ± 0.27
87 | GCGGAGCAAUAUUACGGAAG | – | -2.11 ± 0.36
88 | GAGUAGCAAUAUUACGCAUC | -2.66 ± 0.32 | -2.17 ± 0.28
89 | UAUCAGCAAUAUUACGUUUG | -1.4 ± 0.068 | -0.266 ± 0.092
90 | UCAGAGCAAUAUUACGCGAA | -2.61 ± 0.21 | -3.1 ± 0.29
91 | UCCGAGCAAUAUUACGAUGA | -0.4 ± 0.068 | -0.0382 ± 0.079
92 | UUCUAGCAAUAUUACGAUGC | -2.12 ± 0.3 | -2.86 ± 0.38
93 | UUGAAGCAAUAUUACGCCAU | -1.71 ± 0.086 | -1.56 ± 0.12
94 | CGCGAGCAAUAUUACGCGAA | -3.88 ± 0.43 | -2.65 ± 0.23
95 | CAAAAGCAAUAUUACGGAAG | -1.23 ± 0.049 | -0.438 ± 0.071
96 | UAGGAGCAAUAUUACGGCAC | -2.4 ± 0.15 | -2.53 ± 0.26
97 | GAUGAGCAAUAUUACGUUCG | -2.05 ± 0.14 | -0.925 ± 0.18
98 | UUGAAGCAAUAUUACGAGCA | -0.381 ± 0.12 | 0.224 ± 0.14
